In PMC3166367:
Blank lines part the entries; values can stand above or below the substance they belong to.

Assays:
[1] = molecular target: VE-cad(3) fragment (residues Phe210-Phe325), third domain of the extracellular portion of VE-cadherin; test: SPR
[2] = molecular target: dimeric (β15-44)2 fragment (β15-42 with Cys43 and Gly44 added, dimerized through Cys43); test: ELISA
[3] = molecular target: VE-cadherin (Homo sapiens) (UniProt P33151); test: SPR; details: cited from earlier work
Chain of VE-cadherin (Homo sapiens) (P33151 48-599): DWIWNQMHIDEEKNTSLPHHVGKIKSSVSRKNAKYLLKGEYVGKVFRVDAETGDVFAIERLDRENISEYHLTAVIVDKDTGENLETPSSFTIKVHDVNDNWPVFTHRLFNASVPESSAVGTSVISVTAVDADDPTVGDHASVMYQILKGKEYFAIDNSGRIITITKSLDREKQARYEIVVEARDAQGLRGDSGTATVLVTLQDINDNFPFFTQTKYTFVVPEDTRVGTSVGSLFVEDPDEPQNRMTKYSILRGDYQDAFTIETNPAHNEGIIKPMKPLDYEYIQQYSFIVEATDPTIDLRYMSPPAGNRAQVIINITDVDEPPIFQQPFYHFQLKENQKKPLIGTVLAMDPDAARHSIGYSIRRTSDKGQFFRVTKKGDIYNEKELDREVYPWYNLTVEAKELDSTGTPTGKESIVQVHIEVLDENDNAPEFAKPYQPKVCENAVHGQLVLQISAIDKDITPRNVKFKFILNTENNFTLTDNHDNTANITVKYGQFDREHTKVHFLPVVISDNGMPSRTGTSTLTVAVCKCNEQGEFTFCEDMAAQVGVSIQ

Kd [1]: 715 nM
Substance: dimeric (β15-44)2 fragment (β15-42 with Cys43 and Gly44 added, dimerized through Cys43) (peptide)

Kd [2]: 146 nM
Substance: VE-cad(3) fragment (residues Phe210-Phe325), third domain of the extracellular portion of VE-cadherin (domain or fragment)

Substance: fibrin fragment (β15-66)2 15-66 (from UniProt P02675)
Kd [3]: 80 nM
